Blank lines part the entries; values can stand above or below the substance they belong to.
Tests used:
Experiment in all cases: FRET or BRET; acceptor-bleaching FRET at kinetochores of transfected human cells (HeLa, HEp-2, U2OS), in vivo or in situ; donor EGFP, acceptor mCherry; E_FRET of a bleached region compared with EVAR of an unbleached region
[1] = molecular target: mCherry-CENP-S (UniProt Q8N2Z9)
[2] = molecular target: CENP-S-mCherry (UniProt Q8N2Z9)
[3] = molecular target: EGFP-CENP-U (UniProt Q71F23)
[4] = molecular target: mCherry-CENP-B (UniProt P07199)
[5] = molecular target: mCherry-H3.1 (human) (UniProt P68431)
[6] = molecular target: CENP-B-mCherry (UniProt P07199)

Chain of UniProt Q71F23 (Q71F23 whole entry): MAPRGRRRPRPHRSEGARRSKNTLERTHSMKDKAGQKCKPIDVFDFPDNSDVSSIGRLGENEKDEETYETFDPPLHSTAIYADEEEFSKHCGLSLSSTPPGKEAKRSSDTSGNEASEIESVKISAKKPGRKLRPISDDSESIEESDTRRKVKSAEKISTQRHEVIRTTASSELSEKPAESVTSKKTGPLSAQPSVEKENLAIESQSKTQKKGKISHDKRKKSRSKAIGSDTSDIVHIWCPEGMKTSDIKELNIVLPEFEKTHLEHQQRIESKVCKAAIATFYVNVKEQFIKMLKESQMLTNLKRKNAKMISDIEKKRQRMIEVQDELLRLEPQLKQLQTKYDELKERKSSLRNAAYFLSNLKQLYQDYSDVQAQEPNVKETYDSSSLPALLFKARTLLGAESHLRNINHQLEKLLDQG

- mean E FRET % [1]: 4%
- ΔE % [1]: 4.78%
- mean E FRET % [2]: 3.49%
- ΔE % [2]: 3.91%
Substance: CENP-M-EGFP (from UniProt Q9NSP4 1-180) (natural protein)

- mean E FRET % [3]: 6.08%
- ΔE % [3]: 7.86%
Substance: CENP-M-mCherry (from UniProt Q9NSP4 1-180) (natural protein)

- mean E FRET % [4]: 5.07%
- ΔE % [4]: 4.4%
- mean E FRET % [5]: 3.7%
- ΔE % [5]: 5.8%
Substance: CENP-W-EGFP (from UniProt Q5EE01 1-88) (natural protein)

- mean E FRET % [6]: 4.37%
- ΔE % [6]: 3.6%
Substance: EGFP-CENP-W (from UniProt Q5EE01 1-88) (natural protein)

Reference: paper PMC4394509
